The DeepSol protein solubility set

Test: soluble on expression in E. coli; label from the status in PepcDB or PDB records

Row | Sequence | soluble on expression in E. coli
1 | MGHHHHHHSHMVPSREALLGPGTTAIRCPKKLQNQNYKGHGLSKGKEREQRASIRFKTTLMNTLMDVLRHRPGWVEVKDEGEWDFYWCDVSWLRENFDHTYMDEHVRISHFRNHYELTRKNYMVKNLKRFRKQLEREAGKLEAAKCDFFPKTFEMPCEYHLFVEEFRKNPGITWIMKPVARSQGKGIFLFRRLKDIVDWRKDTRSSDDQKDDIPVENYVAQRYIENPYLIGGRKFDLRVYVLVMSVFAECLLWSGHRRQDVHLTNVAVQKTSPDYHPKKGCKWTLQRFRQYLASKHGPEAVETLFRDIDNIFVKSLQSVQKVIISDKHCFELYGYDILIDQDLKPWLLEVNASPSLTASSQEDYELKTCLLEDTLHVVDMEARLTGREKRVGGFDLMWNDGPVSREEGAPDLSGMGNFVTNTHLGCVNDRKKQLRQLFCS | soluble
2 | MKGGRNRWVTAQESTLALASKCEQFDPDGITLYVFSGRFKRYENVTSAKVNQIFQENDPSGTTDLAAVLKHATDDYFQRKGAGKTKPNGETILVVTDGEPDDRKAVMRVIIEASRRMDKDEELAISFIQVGSDAQATRFLKVLDDELQGAGAKFDICDTVTMEDMEDLSLSEVLLNAITDLEHHHHHH | not soluble
3 | MSLKDTFSVLLIEDSNADYRLIQEYLGESQSPSFQISRSTDFSAGLSFITNESPDLVMLDLSLPDRTGLEALSEIKRKFPQIPVIICSGAEDKDITVNALQIGAQDYVYKGKFDSYSLSRSLVFAYERNRLALELEKKSVFEQESEERYRLFFQYNPHPAFLFEHDSLEILEINRAVLEKYGYEEKDLIGKSILQIFELSDFDKVKQEIIFFQFGANQASSFVHKKKNGEKLIADTTVYKFRYQNQILDLAVVTDITEMVRNRESILATLAEKDALIQEIHHRVKNNMQIMISLLNLQADNAMSRNLTAKELYNLLKDTESRVFSMSLVHNELYKSNDLSHVDFHSYLNMLLENLWNLYGVGLKIKHLVEAQGLVLSMNIAISLGLIVCELVTNAIKHAFPDGYEGLLKIFARCELGSTIVTIEDNGKGIPKEMISKNHETLGLQLVNILTKQIQGKLHLEVLDPGTKFEIRFPEQKGTVQRKEGHHHHHH | not soluble
4 | MGSDKIHHHHHHMSNESCKDGKIWAYLKNINVYIDQNKILSDINLNLRYGENILILGPNGSGKSTFLKLLNRSIYPITTKDSSFKLFNKENINIWDLRKKIGFLFKEMEQRVNNGVTLYDVISSGFSGIFNSKYTNLLSESKKIKINNLINTWELGDIIYNEFQTLSDGQKRRALLARALVYEPNILVLDEPFCNLDLKSNIILNQNLNELIKHSVNLIYVTHNVESILPKTNRVILIKEGKILNDGSPSELINTKTLSDLFNISIKVIEQEGYWRMIPLSS | not soluble
5 | MGSDKIHHHHHHMLSGSTQLMPSTVGLASAHLQYSASFFPTTAVYSLLFPDKSIIIGTVALGYAQTRPQDLPVTHILTKGNRTFKLSIASTPEQLEKGLKFRSSLNGDSGMLFNLGGEIYNVPFWMYKVNFPLDIFYLKDNVVTTAVYNAKPCYKNPCPIYKGKVANQVLELATGTANIKVGDRLNIQPLSSAKE | not soluble
6 | MSLKILFSPSESKNENCTKNPIDENSFIFKELFPYRMEALKHYGEFIKNASLKNLQELFGIKNENEIDKFKHDLKQAPTQEAIMLYTGVSYEYLNFKALDKKSQAYILENTLIFSNLFGVVRANDTLPFYKFKQGAKIGNFTIEKFYKEHFSKALDEYLENEEILDLRAGFYDKFYTPKKKFYTYKFVKNGKVISHFAKAYRGILLSISAKNQVKNNKELLANLPSNLKLKEIQIKGLKEEIALEILDEGHHHHHH | soluble
7 | SMFKYEEIVLERGNSGLGFSIAGGIDNPHVPDDPGIFITKIIPGGAAAMDGRLGVNDCVLRVNEVDVSEVVHSRAVEALKEAGPVVRLVVRRRQPPPEETSV | soluble
8 | MSLKKLRIGVVGLGGIAQKAWLPVLAAASDWTLQGAWSPTRAKALPICESWRIPYADSLSSLAASCDAVFVHSSTASHFDVVSTLLNAGVHVCVDKPLAENLRDAERLVELAARKKLTLMVGFNRRFAPLYGELKTQLATAASLRMDKHRSNSVGPHDLYFTLLDDYLHVVDTALWLSGGKASLDGGTLLTNDAGEMLFAEHHFSAGPLQITTCMHRRAGSQRETVQAVTDGALIDITDMREWREERGQGVVHKPIPGWQSTLEQRGFVGCARHFIECVQNQTVPQTAGEQAVLAQRIVDKIWRDAMSEEGGSHHHHHH | soluble
9 | MSKKRGLSGEEKRTRMMEIFFETKDVFQLKDLEKLAPKEKGITAMSVKEVLQSLVDDGMVDCERIGTSNYYWAFPSKALHARKRKLEALNSQLSEGSQKHADLQKSIEKARVGRQETEERAMLAKELFSFRDQRQQLKAEVEKYRECDPQVVEEIREANKVAKEAANRWTDNIFAIKSWAKRKFGFEESKIDKNFGIPEDFDYIDMSKSRAEAAAGAPGIILRYLQEQNRPYSAQDVFGNLQKEHGLGKAAVVKALDQLAQEGKIKEKTYGKQKIYFADQNQFDTVSDADLHGLDASIVALTAKVQSLQQSCRHMEAELKELTSALTTPEMQKEIQELKKECAQYTERLKNIKAATNHVTPEEKEKVYRDRQKYCKEWRKRKRMTTELCDAILEGYPKSKKQFFEEVGIETDEDHNVLLPDP | soluble
10 | MDYKMNNLQLEALLNETLSPQLIKDYCPNGLQVEGKVEVKRIVTGVTASMALIEAAIELKADALLVHHGYFWKNEPEAIRGMKGRRIRTLIQNDLNLYAYHLPLDIHPQLGNNAQLAQRLGICVDGGLEGHPQSVAMFGHFLQPLTGEELAHRIGQVLNRTPLHIAPDQADKLIETVGWCTGGGQDYIELAASRGLDAFISGEISERTTYSAREQSIHYFSAGHHATERYGIKALGEWLAENHGFDVTFIDIDNPVLEHHHHHH | soluble
11 | MSLKTVVVSGASVAGTAAAYWLGRHGYSVTMVERHPGLRPGGQAIDVRGPALDVLERMGLLAAAQEHKTRIRGASFVDRDGNELFRDTESTPTGGPVNSPDIELLRDDLVELLYGATQPSVEYLFDDSISTLQDDGDSVRVTFERAAAREFDLVIGADGLHSNVRRLVFGPEEQFVKRLGTHAAIFTVPNFLELDYWQTWHYGDSTMAGVYSARNNTEARAALAFMDTELRIDYRDTEAQFAELQRRMAEDGWVRAQLLHYMRSAPDFYFDEMSQILMDRWSRGRVALVGDAGYCCSPLSGQGTSVALLGAYILAGELKAAGDDYQLGFANYHAEFHGFVERNQWLVSDNIPGGAPIPQEEFERIVHSITIKDYEGHHHHHH | not soluble
12 | AGMELVGWLVDKGITSEKQWIQEDQASYISFNAASNSRSQIKAALDNAGKIMSLTKTAPDYLVGQQPVEDISSNRIYKILELNGYDPQYAASVFLGWATKKFGKRNTIWLFGPATTGKTNIAEAIAHTVPFYGCVNWTNENFPFNDCVDKMVIWWEEGKMTAKVVESAKAILGGSKVRVDQKCKSSAQIDPTPVIVTSNTNMCAVIDGNSTTFEHQQPLQDRMFKFELTRRLDHDFGKVTKQEVKDFFRWAKDHVVEVEHEFYVKKGG | soluble
13 | MEALILEPSLYTVKAILILDNDGDRLFAKYYDDTYPSVKEQKAFEKNIFNKTHRTDSEIALLEGLTVVYKSSIDLYFYVIGSSYENELMLMAVLNCLFDSLSQMLRKNVEKRALLENMEGLFLAVDEIVDGGVILESDPQQVVHRVALR | soluble
14 | MGSDKIHHHHHHMDQDDASPISSGVEGLDYVLRGGYAKYRSHLVEGRPGSGKTTLGLQFLIKGAAAGEKCLYITLSESRRELQSVAVRHGFSLDGIEILELVPPELSLDPSQLQTLVHSSDLELGETVQAALAEIERMKPDRVVFDSLSEIRLLSQGSLRYRRQVLALKSFFLLNNATVLLLDDLTAEHDDLNLHSISHGVIRMEQLSPIYGGERRRLRIIKMRGVQIRGGFHDFVIRPGGVMVFPRLVASEHEMAEHGTPATGNGSVDTLVGGGLDRGTSTLLMGPSGVGKSTIACSYCHSALKRGEHVLVLLFDETKRIFLARASGLGMDLGPFADNGNLLLEQIDPAELSPGELSSRIQSAVERSSARIVVIDSLTGYLNAMSEEQHLVLQMHEILTYLNQKGVVTILLLANHGLIGQMSAPVDMTYLCDSVMLLRFFESGGRLRRAISVVKKRVGPHEDTIREFKISATGLAVGEPLEEFRGILTGVPTYEGKQGNLLQDKAS | not soluble
15 | MTLNSLPLLRMGTVPLASRISTPLSLRLVSLSLERIRCAGTLRAPFPLPLYFSPGEQPLLHMALPLAARQHFLEHGYAIVPNVLSSSVVERIRSAALASTTARFRSFAHLPNVHSLLKSTPKCTDPLQDGLMSHLQKRRYILRYYRDMRRHKRRLRRAAKAFLNGRDVSELGREDMLRLSEMVCAEAQKVWSRGCTSTVKTDLQMLTAINQYRANAWMTNAQLEAVLRDNEEFVKPLSQLAEVVGGVARPVIFGDVPLLREAYGNPVGYHCLAPTIGTRTNARVSKGGGEATAVSMVLFTYTPTPLCLPPFVLRNSQHAVRRQYLHSVHAERLWRPFAPMEADIRDQLRRFQFDASVVGQPLLAAMAGPSSTPAAPVIGPGTVMVVDPHLMMAFGGNMTPQSEVLYRINVVAENARPHLMAPSWIRGWRTMPEEVHFASPVVFPPLYVE | not soluble
16 | MSISIMTETRPESAEQQHHEVLQRPSDEPCSGCKQLQKDVAKTISMVMERMDKLQYRLDELLKENNELKSSSVSSGKASPSPAESRSSPKLVETVVAPVSGARKRKPKERSPPAAASPLPDFSNLMNGFMFDPLNMSNPNGMMQLLSMVQQQQQQQQHHQHIENQQSVSPPQSKSVKIEDPMDQDVKQEESERSDIPTATEAQNLLDALTAQFSSNGQATSTTSPPSSSSQVQAVIEAVATPSSQSQDSSMFEKTETSGDPNAARCSNCRTDKTTAWRRDAEGKLVCNPCGLYYRLHKVRRPIEMRKNHIQQRYRRKNKEKESSAATQIFNQLLTQMPTMATGGVSTDGAINTFNLLEQISQFTQAQELMNSSATF | not soluble
17 | MDKFRVYGQSRLSGSVNISGAKNAALPILFAAILATEPVKLTNVPELKDIETTLKILRQLGVVVDRDATGAVLLDASNINHFTAPYELVKTMRASIWALAPLVARFHQGQVSLPGGCSIGARPVDLHISGLEKLGADIVLEEGYVKAQVSDRLVGTRIVIEKVSVGATLSIMMAATLAKGTTVIENAAREPEIVDTADFLNKMGAKITGAGSAHITIEGVERLTGCEHSVVPDRIETGTFLIAAAISGGCVVCQNTKADTLDAVIDKLREAGAQVDVTENSITLDMLGNRPKAVNIRTAPHPGFPTDMQAQFTLLNMVAEGTSIITETIFENRFMHIPELIRMGGKAEIEGNTAVCHGVEQLSGTEVIATDLRASISLVLAGCIATGETIVDRIYHIDRGYEHIEDKLRGLGAKIERFSGSDEA | soluble
18 | RATDPFIVKHPLTGEKTIIAGYPWFSDWGRDVMISFPGLVLIPRRFEDAKSILKNFSSNCRRGLIPNNFPAFGGEPVYNTVDASLWFIHSLSRYFAYTEDLLFLSDIWGTVEDIIDNYSKGTDFGIGMDSDYLIRQGPQLTWMDAKVNDIPVTPRAGKACEINALWYNALRTACRLGDLLGRDTSSYETLAAGVASNFERVFWNPENNCLHDIVSEDKAGNQIKDSSIRPNQIFAVSLPYTMLSPEKEKAIVDRVEKDLLTPFGLRTLSLDDPSYIGLYRGGSESRDSAYHNGTVWPWLLGPYVKAYRKVHNYSKKSLEDMRALLQGFDSHLETAGIGTISEVFDGDFPHSPGGCIAQAWSVAEILRAYVEDVLGIKP | not soluble
19 | MPDSTRQPSAPVRDRLQQYGLSETEAETYLAVVEKGPATARTVAETAGVSKSYVYDICDSLAVDGFVSVDDHRTPTVIRATPPSEAFSALKRELDTLEAAVQTRYEDTAAENNTFEVVKSRPTIVKRLEQHIEAADCEVILQIPARRLPDIRDPLRRARERGILVLLTLSSYDRATMELDLKEIANAVRIGLDGAPSLLATDQQRGFVSPSTMLSWDHDETNAITFTQEAVAAVLVGSYLGNYWPIGEEVLVSRPPSLPARYDMFRPVVFTTTLALRAGESVVADLYARPTGSDDDFEVISGEVVDVRQNLVAPHNSDFGFENSLVVDTGDSRITVGGYGAFLEDYEVKHTTLRRA | not soluble
